Results on one substance are retold here after patent US20130177981A1.

Common to all, as to assay: cell-based or functional assay
Test [1] deals with gp41 of HIV-1 strain DJ258 (HIV-1 strain DJ258).
For test [2], the target named is gp41 of HIV-1 strain CC 1/85 (HIV-1 strain CC 1/85).
Test [3] has as its target gp41 of HIV-1 strain NL4-3 (HIV-1 strain NL4-3).
The target in test [4] is gp41 of HIV-1 strain HC4 (HIV-1 strain HC4).

In test [1], T-20 (peptide) showed an Inhibition of HIV-1 infectivity, IC50 (nM), DJ258 of 330 nM. In test [2], the Inhibition of HIV-1 infectivity, IC50 (nM), CC 1/85 worked out at 1400 nM. This substance yielded an Inhibition of HIV-1 infectivity, IC50 (nM), NL4-3 in test [3] of 700 nM. Also, the Inhibition of HIV-1 infectivity, IC50 (nM), HC4 in test [4] turned out to be 250 nM.
